These are literature values, as cited in PMC293425.

The series deals with relaxin receptor LGR7 (Homo sapiens) (UniProt Q9HBX9).
UniProt Q9HBX9, sequence (Q9HBX9 whole entry): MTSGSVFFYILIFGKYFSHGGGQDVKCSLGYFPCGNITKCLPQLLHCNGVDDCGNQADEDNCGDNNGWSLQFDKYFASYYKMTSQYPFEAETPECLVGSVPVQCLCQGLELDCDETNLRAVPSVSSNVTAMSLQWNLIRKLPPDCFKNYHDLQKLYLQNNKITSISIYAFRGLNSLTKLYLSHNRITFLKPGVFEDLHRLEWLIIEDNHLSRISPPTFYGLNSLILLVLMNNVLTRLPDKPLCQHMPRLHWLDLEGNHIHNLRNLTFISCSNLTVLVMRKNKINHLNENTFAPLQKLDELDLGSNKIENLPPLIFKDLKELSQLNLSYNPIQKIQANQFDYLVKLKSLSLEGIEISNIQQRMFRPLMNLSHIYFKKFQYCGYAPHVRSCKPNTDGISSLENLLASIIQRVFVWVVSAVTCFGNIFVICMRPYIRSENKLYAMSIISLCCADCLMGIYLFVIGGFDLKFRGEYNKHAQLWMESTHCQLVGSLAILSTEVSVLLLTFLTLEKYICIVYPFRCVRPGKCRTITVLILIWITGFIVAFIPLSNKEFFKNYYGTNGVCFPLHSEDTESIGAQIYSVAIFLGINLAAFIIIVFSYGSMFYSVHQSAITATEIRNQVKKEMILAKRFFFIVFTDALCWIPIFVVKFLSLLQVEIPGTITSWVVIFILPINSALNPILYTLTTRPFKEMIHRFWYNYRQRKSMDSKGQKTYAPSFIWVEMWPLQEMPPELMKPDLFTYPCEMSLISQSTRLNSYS

relaxin, sequence (P04090 162-185): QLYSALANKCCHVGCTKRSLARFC

relaxin (from UniProt P04090): the Kd was 1 nM.
